# Experimental data taken from the DeepSol protein solubility set.
# Test: soluble on expression in E. coli; label from the status in PepcDB or PDB records
row,Sequence,soluble on expression in E. coli
1,MHFETVIGLEVHVELKTDSKMFSPSPAHFGAEPNSNTNVIDLAYPGVLPVVNKRAVDWAMRAAMALNMEIATESKFDRKNYFYPDNPKAYQISQFDQPIGENGYIDIEVDGETKRIGITRLHMEEDAGKSTHKGEYSLVDLNRQGTPLIEIVSEPDIRSPKEAYAYLEKLRSIIQYTGVSDVKMEEGSLRCDANISLRPYGQEKFGTKAELKNLNSFNYVRKGLEYEEKRQEEELLNGGEIGQETRRFDESTGKTILMRVKEGSDDYRYFPEPDIVPLYIDDAWKERVRQTIPELPDERKAKYVNELGLPAYDAHVLTLTKEMSDFFESTIEHGADVKLTSNWLMGGVNEYLNKNQVELLDTKLTPENLAGMIKLIEDGTMSSKIAKKVFPELAAKGGNAKQIMEDNGLVQISDEATLLKFVNEALDNNEQSVEDYKNGKGKAMGFLVGQIMKASKGQANPQLVNQLLKQELDKRLEHHHHHH,soluble
2,MHGLNKDIIFPLQIFALSNNVLYNFPEQGVVPVLYVIYAQDKADSLEKRLSVRPAHLARLQLLHDEGRLLTAGPMPAVDSNDPGAAGFTGSTVIAEFESLEAAQAWADADPYVAAGVYEHVSVKPFKKVF,not soluble
3,MHGVDEDDLERQRIEKIKEVQEAVAKLTGAKFQKLENLQRMERMLNKEIELLQNATRKALETHLVTCNYAFYKSIIDEVEEMENATAVLKTFKRDNVSVTVDIVMKEPNVWIKLVNRPAKTVLIEYRDGKRNGDVIAQIKQHLFVSRRFNRPQIRIYFRNGVLAEMAQKLIRHGIVVIGEHVDKSDPSLRGKWNEELIERLGEEEDSDWDEVDEDAASIPTLPSSQSQSESTLPRLNLDISAVMLLVSNMCEPGGVNYQFKEEMINKHVECERLKPAKAEVLEKLKGHHLIMCELAYRRVAEIVKNVGGPTEKKRFEELSKTIERVQDQPSDEIGRVVKLRNIKGITSITKRVFSCAEVTKTTTVTANQKFLTHSRAKHIYFDVIEIPPRPLTEQKEATAKVI,not soluble
4,MHHHHHHKSTKILILGAGPAGFSAAKAALGKCDDITMINSEKYLPYYRPRLNEIIAKNKSIDDILIKKNDWYEKNNIKVITSEFATSIDPNNKLVTLKSGEKIKYEKLIIASGSIANKIKVPHADEIFSLYSYDDALKIKDECKNKGKAFIIGGGILGIELAQAIIDSGTPASIGIILEYPLERQLDRDGGLFLKDKLDRLGIKIYTNSNFEEMGDLIRSSCVITAVGVKPNLDFIKDTEIASKRGILVNDHMETSIKDIYACGDVAEFYGKNPGLINIANKQGEVAGLNACGEDASYSEIIPSPILKVSGISIISCGDIENNKPSKVFRSTQEDKYIVCMLKENKIDAAAVIGDVSLGTKLKKAIDSSKSFDNISSLDAILNNL,soluble
5,MHHHHHHMVGFGELKEEWRGEVVHLSWSPRAFLLKNFLSDEECDYIVEKARPKMVKSSVVDNESGKSVDSEIRTSTGTWFAKGEDSVISKIEKRVAQVTMIPLENHEGLQVLHYHDGQKYEPHYDYFHDPVNAGPEHGGQRVVTMLMYLTTVEEGGETVLPNAEQKVTGDGWSECAKRGLAVKPIKGDALMFYSLKPDGSNDPASLHGSCPTLKGDKWSATKWIHVAPIGGRH,soluble
6,MHHHHHHSHMHHHHHHSHMSKYAELLAIIEELGKEIRPTYAGSKSAMERLKRGIIHARGLVREALAETERNARS,soluble
7,MHHHHHHSSGRENLYFQGMAKERRRAVLELLQRPGNARCADCGAPDPDWASYTLGVFICLSCSGIHRNIPQVSKVKSVRLDAWEEAQVEFMASHGNDAARARFESKVPSFYYRPTPSDCQLLREQWIRAKYERQEFIYPEKQEPYSAGYREGFLWKRGRDNGQFLSRKFVLTEREGALKYFNRNDAKEPKAVMKIEHLNATFQPAKIGHPHGLQVTYLKDNSTRNIFIYHEDGKEIVDWFNALRAARFHYLQVAFPGASDADLVPKLSRNYLKEGYMEKTGPKQTEGFRKRWFTMDDRRLMYFKDPLDAFARGEVFIGSKESGYTVLHGFPPSTQGHHWPHGITIVTPDRKFLFACETESDQREWVAAFQKAVDRPMLPQEYAVEAHFKHKP,soluble
8,MHHHHHHSSGVDLGTENLYFQSMASGANFEYIIAEKRGKNNTVGLIQLNRPKALNALCDGLIDELNQALKIFEEDPAVGAIVLTGGDKAFAAGADIKEMQNLSFQDCYSSKFLKHWDHLTQVKKPVIAAVNGYAFGGGCELAMMCDIIYAGEKAQFAQPEILIGTIPGAGGTQRLTRAVGKSLAMEMVLTGDRISAQDAKQAGLVSKICPVETLVEEAIQCAEKIASNSKIVVAMAKESVNAAFEMTLTEGSKLEKKLFYSTFATDDRKEGMTAFVEKRKANFKDQ,soluble
9,MHHHHHHSSGVDLGTENLYFQSMSAQNNAKVAVLGASGGIGQPLSLLLKNSPLVSRLTLYDIAHTPGVAADLSHIETKAAVKGYLGPEQLPDCLKGCDVVVIPAGVPRKPGMTRDDLFNTNATIVATLTAACAQHCPEAMICVIANPVNSTIPITAEVFKKHGVYNPNKIFGVTTLDIVRANTFVAELKGLDPARVNVPVIGGHAGKTIIPLISQCTPKVDFPQDQLTALTGRIQEAGTEVVKAKAGAGSATLSMAYAGARFVFSLVDAMNGKEGVVECSFVKSQETECTYFSTPLLLGKKGIEKNLGIGKVSSFEEKMISDAIPELKASIKKGEDFVKTLK,soluble
10,MHHHHHHSSGVDLGTENLYFQSMSFAVGMFKGQLTTDQVFPYPSVLNEEQTQFLKELVEPVSRFFEEVNDPAKNDALEMVEETTWQGLKELGAFGLQVPSELGGVGLCNTQYARLVEIVGMHDLGVGITLGAHQSIGFKGILLFGTKAQKEKYLPKLASGETVAAFCLTEPSSGSDAASIRTSAVPSPCGKYYTLNGSKLWISNGGLADIFTVFAKTPVTDPATGAVKEKITAFVVERGFGGITHGPPEKKMGIKASNTAEVFFDGVRVPSENVLGEVGSGFKVAMHILNNGRFGMAAALAGTMRGIIAKAVDHATNRTQFGEKIHNFGLIQEKLARMVMLQYVTESMAYMVSANMDQGATDFQIEAAISKIFGSEAAWKVTDECIQIMGGMGFMKEPGVERVLRDLRIFRIFEGTNDILRLFVALQGCMDKGKELSGLGSALKNPFGNAGLLLGEAGKQLRRRAGLGSGLSLSGLVHPELSRSGELAVRALEQFATVVEAKLIKHKKGIVNEQFLLQRLADGAIDLYAMVVVLSRASRSLSEGHPTAQHEKMLCDTWCIEAAARIREGMAALQSDPWQQELYRNFKSISKALVERGGVVTSNPLGF,soluble
11,MHHHHHHSSGVDLGTENLYFQSNAMADCYLTEKKKNFIPIQPMMPDELPDWLDTQDARTQQWVKASGFVGLAGTICSIPESTGALQRVLLGVSDYEYSWDFGGLSKVLPPGAFQLNRDDFEDDEYYERALLAFGLGSYQFNAYRKRSPYLAKLFLPQAHRKRVTDWLTTIYLIRDLINTPAEDMGPSELAQAVKHVAKEFEAKVKIIESKDLETEFPAIYAVGRAGSRPPLLIDLKWGDIKAPKVTLVGKGVCFDSGGLDIKTPGGMLLMKKDMGGAAHALGLARMIMLQQLPVRLRLLIPAVENAIGSRSYRPGDVVQTRARKTIEITNTDAEGRVVLADALAEAVKEDPDLIIDFSTLTGAARIALGPNLPALFANQDSLAQALIDASLKTDDPLWRLPLFQPYRNYLKSEVADLTNSSQNRMAGAITAALFLQHFVSDQIPWAHFDIFAWNLEDLPGRPIGGEAMALRAVFHYLEQQYR,soluble
12,MHHHHHHSSGVDLGTENLYFQSNAMSSKIFCKSWGAEYIAADVVRFRLWATGQQKVMLRLAGKDQEMQANGDGWFTLDVAGVTPGTEYNFVLSDGMVVPDPASRAQKTDVNGPSYVVDPGSYTWRNTGWKGSRWEQAVVYEMHTGTFTPEGTFRAAIAKLPYLAELGVTVIEVMPVAQFGGERGWGYDGVLLYAPHSAYGTPDDFKAFIDAAHGYGLSVVLDIVLNHFGPEGNYLPLLAPAFFHKERMTPWGNGIAYDVDAVRRYIIEAPLYWLTEYHLDGLRFDAIDQIEDSSARHVLVEIAQRIREDITDRPIHLTTEDSRNIISLHPRDQDGNAPLFTAEWNDDFHNAVHVFATGETQAYYNDFADAPEKHLARALAEGFAYQGEISPQTGEPRGVKSTGQPPVAFVDFIQNHDQVGNRAQGDRLITLAGAERTKVLLATLLLSPHIPLLFMGEEYGESRPFLFFTDFHGDLARAVREGRAKEFADHAGENVPDPNAPETFQRSKLNWKQQHSEEGKAWLAFTRELLLLRQKHIVPLLSAARESSGTVLQTAPGFIAVSWRFPGGTLSLALNISATTVLLPDLPGKTLFAWPNESTGSLSQHSLIVRLAQGESAS,soluble
13,MHHHHHHSSGVDLGTENLYFQSNAMTIMLTPMQTEEFRSYLTYTTKHYAEEKVKAGTWLPEDAQLLSKQVFTDLLPRGLETPHHHLWSLKLNEKDIVGWLWIHAEPEHPQQEAFIYDFGLYEPYRGKGYAKQALAALDQAARSMGIRKLSLHVFAHNQTARKLYEQTGFQETDVVMSKKL,soluble
14,MHIAILGCTSQIAKDLIRSIYVYSQHDLILFGRTPQQTQSWLAENGITSRCSVNQYEEYPNIDHDVVINFVGIGDPSKAAAMGGSIFDITLHYDELVLNELKKYPDRRYLFLSSGAAYGSSFLEPADADTPSTININNLLPQEYYSVAKLHAECRHRSLKEYAIVDLRVFNVFSRTQDLEARFFITDIVRSIHSGTELITSSDMIYRDFMHPKDFYQLVERVLNAPPMNISLDCYSRQPVDKTTLLDEMKKTFGLSYRVKESNMSINATGIKPCYYSKNKRAAEFGYLPEYSSLETIIEETNAILGLQKTVLEHHHHHH,soluble
15,MHIEFREFNPFDVWIWLKFSNVPSEREKQYVEEVFNSWFYLGKLGAFNAENLQVQDTGLDISYMDYDPSAYNKSFLALMHNMSEFEYEGEWGRCWFDLGTSDAIALDLLLNSLTQLSEEYVTIEILYIGGENSDWPVEDSETHANADSIYDY,not soluble
16,MHIVIVGAGAVGGFFGGLLHESGTKVTFVARGKSLDALQRRGMRLHDASGVRDIRVPVVEDLSHVPDADVVILATKTLGSVDVPKNLPKSAVLVTTQNSVEMPHIAVEALGVDRVIPGVVRSFLTKRGPAEAEFSGGIFTFTFGCMSEATRGIVDKLAHVLDRAGIEPVVHPAIMTDIWFKAMFVTCFGALGALVNQPLGVVRTTYRDDFKALINEVVTAGQAHGVDFPEDVVDRVLAFADAQPKGATSSMQRDLANGLPSELDAQAGAVVRMAQRVGVDARLHHLVGNVLSHKHSD,soluble
17,MHLKNNQTLANGATVTIYPTTTEPTNYVVYLHGGGMIYGTKSDLPEELKELFTSNGYTVLALDYLLAPNTKIDHILRTLTETFQLLNEEIIQNQSFGLCGRSAGGYLMLQLTKQLQTLNLTPQFLVNFYGYTDLEFIKEPRKLLKQAISAKEIAAIDQTKPVWDDPFLSRYLLYHYSIQQALLPHFYGLPENGDWSAYALSDETLKTFPPCFSTASSSDEEVPFRYSKKIGRTIPESTFKAVYYLEHDFLKQTKDPSVITLFEQLDSWLKER,soluble
18,MHMSFDGMFTYGMTHELNEKIMGGRITKIHQPYKHDVIFHIRAKGKNQKLLLSAHPSYSRVHITAQAYENPSEPPMFCMLLRKHIEGGFIEKIEQAGLDRIMIFHIKSRNEIGDETVRKLYVEIMGRHSNIILTDAAENVIIDGLKHLSPSMNSYRTVLPGQDYKLPPAQDKISPLEASEDDILRHLSFQEGRLDKQIVDHFSGVSPLFAKEAVHRAGLANKVTLPKALLALFAEVKEHRFIPNITTVNGKEYFYLLELTHLKGEARRFDSLSELLDRFYFGKAERDRVKQQAQDLERFVVNERKKNANKIKKLEKTLEYSENAKEFQLYGELLTANLYMLKKGDKQAEVINYYDEESPTITIPLNPNKTPSENAQAYFTKYQKAKNSVAVVEEQIRLAQEEIEYFDQLIQQLSSASPRDISEIREELVEGKYLRPKQQKGQKKQKP,soluble
19,MHNVVFVLGPPGSGKGTICAKIQENLNYVHLSAGDLLRAERQREGSEFGALIESHIKNGSIVPVEITCSLLENAMKACGDAKGFLVDGFPRNEDNLQGWNKQMDGKALVQFVLFLSCPVSICIERCLNRGQGRTDDNEESLKKRVETYNQQTFPIIEHFEKSGLVREVKSERPVDVVYADVEKVFDAANKK,not soluble
